Measured values reported in article PMC6448818, “A novel evolutionary conserved mechanism of RNA stability regulates synexpression of primordial germ cell-specific genes prior to the sex-determination stage in medaka”.

Legend:
[1] = molecular target: T1, Ol-bsf (Ol-lrpprc, Bicoid Stability Factor) (Oryzias latipes, UniProt H2LIH1 1-1438); experiment: competition; vs labelled D3U-box, probe/competitor 1/5; EMSA: 10 mM Tris-HCl pH 7.9, 100 mM KCl, 10% glycerol, 5 mM MgCl2, 1 ug torula rRNA, 0.075% Triton X-100, 1 mM DTT, 1 ug BSA, 0.5 ng probe, 2 or 4 uL IVT mix in 20 uL, on ice 10 min; heparin (1/10 volume of 50 mg/mL) before loading; 5% native gel, 0.5x TBE; settings: protein: ivt; tags: FLAG
T1 sequence: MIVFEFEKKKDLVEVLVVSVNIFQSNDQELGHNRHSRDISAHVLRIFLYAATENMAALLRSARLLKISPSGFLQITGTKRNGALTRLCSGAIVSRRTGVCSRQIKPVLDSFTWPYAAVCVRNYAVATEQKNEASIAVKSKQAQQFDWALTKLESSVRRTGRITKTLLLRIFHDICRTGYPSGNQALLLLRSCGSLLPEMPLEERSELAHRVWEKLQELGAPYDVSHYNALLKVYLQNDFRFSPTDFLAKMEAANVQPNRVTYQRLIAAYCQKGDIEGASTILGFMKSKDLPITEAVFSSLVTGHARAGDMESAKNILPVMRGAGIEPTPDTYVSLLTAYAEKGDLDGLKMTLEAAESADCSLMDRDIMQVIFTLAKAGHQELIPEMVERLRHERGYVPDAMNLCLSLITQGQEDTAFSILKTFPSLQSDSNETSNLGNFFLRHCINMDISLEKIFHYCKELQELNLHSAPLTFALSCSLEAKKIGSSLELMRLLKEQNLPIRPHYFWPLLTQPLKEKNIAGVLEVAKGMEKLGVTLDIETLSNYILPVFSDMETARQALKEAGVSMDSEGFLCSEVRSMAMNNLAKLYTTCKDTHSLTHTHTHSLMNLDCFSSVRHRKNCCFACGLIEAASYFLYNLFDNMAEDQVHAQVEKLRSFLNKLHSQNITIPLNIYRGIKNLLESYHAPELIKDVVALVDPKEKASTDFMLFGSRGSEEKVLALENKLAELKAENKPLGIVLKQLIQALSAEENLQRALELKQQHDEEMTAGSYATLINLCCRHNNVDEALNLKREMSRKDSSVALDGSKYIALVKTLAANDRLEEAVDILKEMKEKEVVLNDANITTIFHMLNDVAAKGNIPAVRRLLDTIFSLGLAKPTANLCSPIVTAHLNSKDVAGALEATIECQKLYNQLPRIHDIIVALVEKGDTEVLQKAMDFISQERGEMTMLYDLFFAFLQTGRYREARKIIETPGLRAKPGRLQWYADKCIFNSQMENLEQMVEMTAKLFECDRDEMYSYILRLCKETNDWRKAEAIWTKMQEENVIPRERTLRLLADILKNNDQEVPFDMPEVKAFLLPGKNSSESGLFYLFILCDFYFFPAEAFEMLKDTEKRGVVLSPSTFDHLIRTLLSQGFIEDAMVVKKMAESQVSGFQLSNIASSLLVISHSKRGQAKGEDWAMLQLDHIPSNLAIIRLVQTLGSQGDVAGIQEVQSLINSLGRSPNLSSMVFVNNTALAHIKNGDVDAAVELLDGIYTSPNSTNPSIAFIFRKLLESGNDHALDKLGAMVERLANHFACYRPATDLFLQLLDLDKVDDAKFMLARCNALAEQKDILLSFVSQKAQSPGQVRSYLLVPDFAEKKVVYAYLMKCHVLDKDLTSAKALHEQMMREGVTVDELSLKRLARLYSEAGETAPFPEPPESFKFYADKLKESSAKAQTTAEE

[2] = molecular target: T1, Ol-bsf (Ol-lrpprc, Bicoid Stability …); experiment: EMSA; self-competition 1/1 to 1/4 gave progressive loss of shift; EMSA: 10 mM Tris-HCl pH 7.9, 100 mM KCl, 10% glycerol, 5 mM MgCl2, 1 ug torula rRNA, 0.075% Triton X-100, 1 mM DTT, 1 ug BSA, 0.5 ng probe, 2 or 4 uL IVT mix in 20 uL, on ice 10 min; heparin (1/10 volume of 50 mg/mL) before loading; 5% native gel, 0.5x TBE; settings: protein: ivt; tags: FLAG; label: 5'-32P when probe

UGGUUCACGUUCUUCAAGACGCUCUGACUCU (ssRNA) [D3U-scrambled box (S-D3U-box)]
binding result [1]: no binding

UGGUUCACGUCUGCUGCAGGUCUCUGACUCU (ssRNA) [native medaka D3U-box]
binding result [2]: binds
